Source: patent US20260152571A1 (BIOCYTOGEN PHARMACEUTICALS BEIJING, published 2026)

B1: 1G7-IgG1-SI (antibody, V domains shown)
VH: QVQLVESGGGVVRPGGSLRLSCTASGFTFDDYGMTWVRQAPGKGLEWVSGINWNGGSTGYADSVKGRFTISRDNAKNSLFLQMNSLRAEDTALYYCARDQGIAVVGTHYYYYYGMDVWGQGTAVTVSS
VL: EIVLTQSPATLSLSPGERATLSCRASQSFSSYLAWYQQKPGQAPRLLIFDTSNRATGIPARFSGSGSGTDFTLTISSLEPEDFAVYYCQQRSNWPLTFGGGTKVEIK
notes: VH and VL joined to IgG1 constant regions with SI mutations (S239D and I332E, EU numbering) in the Fc
B2: 1E9-IgG1-SI (antibody, V domains shown)
VH: EVQMVESGGDVVRPGGSLRLSCAASGFMFDDYGMSWVRHVQGKGLEWVSGIDWNGDSTGYADSVKGRFTISRDNAKNSLYLQMNSLRAEDTALYYCARDQGIAVAGPYNYYYGMDVWGQGTTVTVSS
VL: EIVLTQSPATLSLSPGERATLSCRASQSVSSYLAWYQEKPGQAPRLLIFDASNRATGIPARFSGSGSGTDFTLTISSLEPEDFAVYYCQQRSNWPFTFGPGTRVEIK
notes: VH and VL joined to IgG1 constant regions with SI mutations (S239D and I332E, EU numbering) in the Fc; also called 1E9-IgGI-SI
B3: 3A6-IgG1-SI (antibody, V domains shown)
VH: QVQLQESGPGMVKPSETLSLTCTVSGGSISYNYWSWIRQPPGKGLEWIGYIYHSGTTKYNPSLKSRVTMSVDTSKNHFSLKLNSVTAADTAVYYCARHEDYWFFDLWGRGTLVTVSS
VL: DIQMTQSPSSLSASVGDRVTITCRASQGISNYLVWFQQKPGKAPKSLIYAASILQSGVPSKFSGSGSGTDFTLTINSLQPEDFATYYCQQYNTYPFTFGPGTKVDIK
notes: as for B1
B4: 4F10-IgG1-SI (antibody, V domains shown)
VH: QVQLQESGPGLVKPSETLSLTCTVSGGSISNYYWSWIRQPPGKGLEWIGYIYYSGSTNYNPSLKSRVNISVDTSKSQVSLKLNSVIAADTAVYYCARHEDYWYFDLWGRGTLVTVSS
VL: DIQLTQSPSSLSASIRDRVTITCRASQDINNYLAWFQQKPGKAPKSLIYAVSSLESGVPSKFSGSGSGTDFTLTISSLQPEDFATYFCQQYNSYPFTFGPGTKVEIK
notes: as for B1
B5: 3E6-IgG1-SI (antibody, V domains shown)
VH: EVQLVESGGGVVRPGGSLRLSCAASGFTFDDSGMSWVRQGPGKGLEWVSGINWNGGSTGYADSVKGRFTISRDNAKNSLYLQMNSLRAEDTALYYCARDPGIAVAGPYYYYYYGMDVWGQGTTVTVSS
VL: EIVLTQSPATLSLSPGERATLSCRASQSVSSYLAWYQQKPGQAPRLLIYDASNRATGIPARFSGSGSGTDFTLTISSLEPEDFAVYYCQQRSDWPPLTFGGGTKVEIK
notes: as for B1
B6: 7B9-IgG1-SI (antibody, V domains shown)
VH: EVQLVESGGGVVQPGGSLRLSCAASGFTFDDYAMHWVRQAPGKGLEWVSLISGDDGSTYYADSMKGRITISRDNSKNSLYLQMNSLRTEDTAMYYCAKASYGSGSYLYNYGMDVWGQGTTVTVFS
VL: DIQLTQSPSSLSASVGDRVTITCQASQDIINYLNWYQQKPGKAPKLLIYDTSNLETGVPSRFSGSGSGTDFAFTINSLQPEDIATYYCQQFVNLPLTFGGGTKVEIK
notes: VH and VL joined to IgG1 constant regions with SI mutations (S239D and I332E, EU numbering) in the Fc; also called 7B9-IgGI-SI
B7: P01199-IgG1-SI (antibody, V domains shown)
VH: QVQLVESGGGLVKPGGSLRLSCAASGFTFSNAWMNWVRQTPGKGLEWVGRIKSKTDGGTKDYAAPVKGRFTISRDDSKNTLYLQMNSLNTEDTAVYYCSTDPRIAVTGTDYYYGMDVWGQGTTVTVSS
VL: not shown
notes: as for B1
B8: P01218-IgG1-SI (antibody, V domains shown)
VH: EVQLVESGGGVVQPGRSLRLSCAASGFTFSSYAMHWVRQAPGKGLEWVAVISYDGSNKYYADSVKGRFTISRDNSKNTLYLQMNSLRAEDTAVYYCARAPYYGSGSYYNSYYYYHGMDVWGQGTTVTVSS
VL: AIWMTQSPSSLSASVGDRVTITCQASQDISNYLNWYQQKPGKAPNLLIYDASNLETGVPSRFSGSGSGTDFTLTISSLQPEDIATYYCQQYDNLPLTFGGGTKVEIK
notes: VH and VL joined to IgG1 constant regions with SI mutations (S239D and I332E, EU numbering) in the Fc; also called P01218-IgGI-SI
B9: P01264-IgG1-SI (antibody, V domains shown)
VH: EVQLVESGGGLVKPGGSLRLSCAASGFTFSNAWMNWVRQAPGKGLEWVGRIKSKTDGGTTDYAAPVKGRFTISRHDSKNTLYLQMNSLKTEDTAVYYCATDPRIAVTGTDYYYGMDVWGQGTTVTVSS
VL: DIVMTQTPSFLSASVGDRVTITCRASQDISNYLNWYQQKPGKAPKLLIYDASNLETGVPSRFSGSGSGTDFTFTISSLQPEDIATYYCQQYDNLPITFGQGTRLEIK
notes: as for B1
B10: ESK1 analog (antibody, V domains shown)
VH: QMQLVQSGAEVKEPGESLRISCKGSGYSFTNFWISWVRQMPGKGLEWMGRVDPGYSYSTYSPSFQGHVTISADKSTSTAYLQWNSLKASDTAMYYCARVQYSGYYDWFDPWGQGTLVTVSS
VL: not shown
notes: Fully human TCR-like monoclonal IgG1 antibody

Columns and labels:
[1] = target: His-tagged WT1RMF/HLA-A2 complex (human); assay: SPR, Biacore 8K; antibody captured on Protein A chip, His-tagged complex as analyte; 1:1 Langmuir fit
[2] = target: WT1RMF/HLA-A2 complex on cells (human); assay: flow cytometry, T2 cells pulsed with 50 µM WT1RMF, antibody titrated 0.00096-45 nM, MFI curve
[3] = target: WT1RMF/HLA-A2 complex on cells (human); assay: flow cytometry (MFI), T2 cells pulsed with 50 µM WT1RMF, antibody titrated
[4] = target: WT1RMF/HLA-A2 complex on cells (human); assay: flow cytometry, T2 cells pulsed with 25 µM WT1RMF, antibody 10 µg/mL

| Binder | Kd [1] [nM] | koff [1] [s⁻¹] | kon [1] [M⁻¹ s⁻¹] | EC50 [2] [nM] | EC50 (read off the curve) [3] [nM] | Percentage of Positive Cells (%) [4] [%] |
| --- | --- | --- | --- | --- | --- | --- |
| B1 | 9.49 | 0.00151 | 159000 | 0.337 | ~1 | 92.4 |
| B2 | 22.4 | 0.00164 | 73100 | 0.798 |  | 94.9 |
| B3 | 7100 | 0.0204 | 2870 | 2.26 |  | 70.3 |
| B4 | 0.43 | 0.000664 | 1.54e+06 | 0.42 |  | 95.6 |
| B5 | 30.3 | 0.00451 | 149000 | 2.02 |  | 30.9 |
| B6 | 15.3 | 0.00185 | 121000 | 0.553 |  | 93 |
| B7 | 67.4 | 0.00987 | 147000 |  |  | 88.5 |
| B8 | 16.1 | 0.000902 | 56200 | 3.48 |  | 92.8 |
| B9 | 121 | 0.0177 | 146000 | 0.896 |  | 75.4 |
| B10 |  |  |  | 4.04 |  | 88.8 |
